Measured values: patent US20240117061A1 (WUHAN YZY BIOPHARMA, published 2024)

Molecular target: T1, cynomolgus monkey BCMA on HEK293 cynoBCMA cells (cynomolgus monkey, UniProt A0A2K5UD97 1-183)
T1 construct: whole, on cells
Test: flow cytometry on HEK293 cynoBCMA cells
Procedure: Procedures: The cells were resuspended in PBS, and the cell density was adjusted to 2×10^5 cells/well. Human-mouse chimeric monoclonal antibodies were added to a 96-well plate at 50 μL/well and serially 3-fold diluted from 3000 nM to the 9th concentration. The plate was incubated for 1 h at 4° C. 150 μL of precooled PBS containing 1% of FBS was added into the 96-well plate after the co-incubation with the primary antibody was finished. The mixtures were centrifuged at 300×g for 5 min and the supernatants were discarded. The above procedures were repeated once. The fluorescent secondary antibody PE anti-human IgG Fc (Biolegend, 409304) was added at 80 μL/well. The plate was incubated at 4° C. for 30 min. 150 μL of precooled PBS containing 1% of FBS was added into the 96-well plate after the co-incubation with the secondary antibody was finished. The 96-well plate was centrifuged at 300×g for 5 min and the supernatants were discarded. The above procedures were repeated once. The cells were resuspended in 100 μL of PBS containing 1% of FBS and detected on a flow cytometry (BD Accuri™ C6).

T1 sequence (A0A2K5UD97 entry or part of it): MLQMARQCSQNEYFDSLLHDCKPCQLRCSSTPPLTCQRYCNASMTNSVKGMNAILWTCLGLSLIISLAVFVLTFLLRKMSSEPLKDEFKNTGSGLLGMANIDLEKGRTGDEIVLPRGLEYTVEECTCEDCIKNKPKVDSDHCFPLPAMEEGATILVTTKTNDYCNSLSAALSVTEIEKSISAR

B1: human-mouse chimeric antibody c-mAb3 (antibody, human IgG1, V domains shown)
VH: EVQLQQSGPELVKPGASVKILCKASGYTITDYNMDWVKRSHGKSLEWIGNINPHNGGSIYNQKFKGKATLTVDKSSSTAFMELRSLTSEDTAVYYCARGDATLVLDYWGQGTSLTVSS
VL: DIVLTQSPASLAVSLGQRATISCRASKSVSTSGLSYMHWYQQKPGQPPKVLIYLASNLESGVPARFSGSGSGTDFTLNIHPVEEEDAATYYCQHSRELPPTFGAGTKLELK
notes: not shown: human IgG1 heavy chain constant region, GenBank No. AK303185.1; human kappa light chain constant region, GenBank No. MG815648.1
  EC50: 2.66 nM
